Measured values from the supplement of paper PMC9170038.

Tested on: MS2 coat protein
Experiment: apparent KD of MS2 coat protein; designed switch direction (-1 OFF switch, 1 ON switch): -1; higher = weaker reporter binding
Procedure, shortened: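 SNAP-549-labelled MS2 coat protein was titrated, doubling from 0.7 or 1.5 nM to 3 µM, over designed RNA switches transcribed on Illumina chips by stalled E. coli RNA polymerase. Runs were done without input, with 200 uM small-molecule ligand, or with an oligonucleotide input. Apparent KD is the per-design median over clusters of curve-fitted normalised fluorescence.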

[1] = Eterna round: R95, input ligand: microRNA oligo, concentration not stated
[2] = Eterna round: R95, input ligand: FMN 200 uM
[3] = Eterna round: R95, input ligand: none
[4] = input ligand: microRNA oligo, concentration not stated

Sequence	apparent KD of MS2 coat protein (input ligand: FMN 200 uM) [nM]	apparent KD of MS2 coat protein (input ligand: none) [nM]	apparent KD of MS2 coat protein [1] [nM]	further results
AAGUAGACGGUGAGGAUAUAGGUCGAAUGACCGAUUUAGAAGGUACAUGAGGAUCACCCAUGUGGGUAACGUCG [Brourd's EX4 #29] (Eterna round: R97, puzzle: Brourd's mod of Exclusion 4)	56.5	107		
UUUAUGUGAGGAUAUAGUACUCCUUCUAUUAUUUUUGAGUACUAGAAGGCACAUGAGGAUCACCCAUGUAGUAC [Ex4 - 3 - 38] (puzzle: Exclusion 4)			22.1	
CCGGAAAUACAGGAUAUAGGAGUCGAUAGACUCCUAGAAGGGUAUACAUGAGGAUCACCCAUGUUCCUUACCGG [Fiskers Ex 6 - 72] (puzzle: Exclusion 6)			36.9	
AGUACUAACACGUGAGUGUUAGUACAAUAAGCUUGUGAAACAUGAGGAUCACCCAUGUCCUCAUAAGCUCGUCUUAU [salish99_TOv2_r3_061] (puzzle: Sensor v3, turn-off variant 2)			1070	apparent KD of MS2 coat protein [2]: 17.4 nM; apparent KD of MS2 coat protein [3]: 15.6 nM
ACAUGUUGUCCAUGAUAUUACAUGAGGAUCACCCAUGUUAUUGUGAUUUUGAUGUGUAAGUUUGUUGCUCGUCUUAU [JR_STOV1_Sub063] (Eterna round: R97, puzzle: Sensor, turn-off variant 1)	29.8	29.4		
UCAUGGUAGCAGGAUAUGCUUGUUUUUUUUUUUGCAGAAGGGCUUACAUGAGGAUCACCCAUGUGAGAGGUCUA [JR_E6_Sub066] (puzzle: Exclusion 6)			19.9	
GGUGAGCUAGGAUAUGCUUUGGGCUCGCUUUCCUUCGAUAUACUUGAGGAUCACCCAAGUAGAAGGAGCUUGCC [salish99_ex2_r4_034] (Eterna round: R97, puzzle: Exclusion 2)	11.1	11.2		
GUUAAGUGAGGAUAUGGUGAGUAGUGCCAGAGCGCUGCUCACCAGAAGGCACAUGAGGAUCACCCAUGUAUAGC [Mat - Exclusion 4 - Mod of JL - D15] (puzzle: Exclusion 4)			13	
GCUUCUGGGCAAGGAUAUCCUGCGCUGUUCUGGUUCGUGUCUGUCACAUGAGGAUCACCCAUGUGGGAGAAGGUGCCUGUGGCG [Design 67] (Eterna round: R96, puzzle: Exclusion NG 2)	20.9	24.8		apparent KD of MS2 coat protein [4]: 17 nM
AGAUCGUCAGGAUAUACAUGAGGAUCACCCAUGUACUGUCUAAAUUUGACUGUAAGAUGUAGAAGGGACGAUCG [Exclusion 3 (MOD9 of #1 Marzena11)] (Eterna round: R97, puzzle: Exclusion 3)	67.3	25.8		
CUCGUGCAGCUUUGCUGUACGAGUACAUGAGGAUCACCCAUGUAGGAUAUGGUACGCUUUGCGUGCUAGAAGGACGUGUGUAUG [JL EXNG3 1.39] (Eterna round: R96, puzzle: Exclusion NG 3)	117	31.8		apparent KD of MS2 coat protein [4]: 29 nM
ACAGCUAUAGGAUAUACAGCGAGGAAACUUAGUGGGAUCGGACAUGAGGAUCACCCAUGUAGAAGGAUAGACGG [Eternabot (L2) Solution 85] (Eterna round: R97, puzzle: Exclusion 2)	149	97.6		
AAGAAACAUGAGGAUCACCCAUGUGAGGAUAUGUAAAGAAAAGAAAAAGAAAAGAAAAACAGAAGGCACAAAGA [JR_Exclusion1_Sub001] (puzzle: Exclusion 1)			43.6	apparent KD of MS2 coat protein [2]: 38.7 nM; apparent KD of MS2 coat protein [3]: 34 nM
ACAUGAGGAUCACCCAUGUGAAAACAAUGGCUGACACAGAGAUAGGAUAUAUGUGCAUAUCAAACAUAGAAGGGUCAUAACUGG [Deportation 85 - Jieux - Exclusion NG 3] (Eterna round: R96, puzzle: Exclusion NG 3)				apparent KD of MS2 coat protein [4]: 40.6 nM
